The supplement of paper PMC6757056
± gives the standard deviation of the averaged measurements.

B1: library; a variant is named by its letters at N, in order (parent)
chain: GCUGUCACCGAGAAACUGUGAAGUAUAUCUUAAACCUGGGCACUUAAAAGAUAUAUGGAGUUAGUAGUGCAACCUGCUCGGUCUGAUGAGUCCNNNNNNGGACGAAACAGC

How the values were obtained:
cyclic di-GMP [1] = variants of: B1; experiment: normalized RNA/DNA level without ligand (relative to sTRSVctl = 100) (log10 (% of sTRSVctl)); HEK293T; ligand: cyclic di-GMP (c-di-GMP-II aptamer); higher = less ribozyme self-cleavage, higher mRNA level; conditions: reporter: mCherry (pCS4076), ligand present: no
Outline: (§1)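 HEK293T cells received ligand, where used, 1 h before being transfected with 4 µg per 6-well well of library plasmids encoding reporter-linked ribozyme switches. After 72 h, RNA was extracted with EDTA and sequenced. RNA level was derived from RNA reads per DNA read, normalized to a spiked-in non-cleaving sequence or the top sequences, then scaled and log-transformed. Values were ×100 then log10, the top set was 25 sequences, and the minimum was 100 DNA reads.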

cyclic di-GMP [2] = variants of: B1; experiment: normalized RNA/DNA level with ligand (relative to sTRSVctl = 100) (log10 (% of sTRSVctl)); HEK293T; ligand: cyclic di-GMP (c-di-GMP-II aptamer); ligand concentration (+) RNA-Seq: 1 mM; higher = less ribozyme self-cleavage, higher mRNA level; conditions: reporter: mCherry (pCS4076), ligand present: yes
Outline: as §1

| Variant | normalized RNA/DNA level without ligand (log10) (cyclic di-GMP [1]) | normalized RNA/DNA level with ligand (log10) (cyclic di-GMP [2]) |
| --- | --- | --- |
| GCUGUCACCGAGAAACUGUGAAGUAUAUCUUAAACCUGGGCACUUAAAAGAUAUAUGGAGUUAGUAGUGCAACCUGCUCGGUCUGAUGAGUCCUCGUGUGGACGAAACAGC | 1.617 ± 0.0058 | 1.81 ± 0.1 |
| GCUGUCACCGAGAAACUGUGAAGUAUAUCUUAAACCUGGGCACUUAAAAGAUAUAUGGAGUUAGUAGUGCAACCUGCUCGGUCUGAUGAGUCCCGUUUGGGACGAAACAGC | 1.71 ± 0.02 | 1.86 ± 0.069 |
| GCUGUCACCGAGAAACUGUGAAGUAUAUCUUAAACCUGGGCACUUAAAAGAUAUAUGGAGUUAGUAGUGCAACCUGCUCGGUCUGAUGAGUCCGUCGUUGGACGAAACAGC | 1.61 ± 0.017 | 1.8 ± 0.14 |
| GCUGUCACCGAGAAACUGUGAAGUAUAUCUUAAACCUGGGCACUUAAAAGAUAUAUGGAGUUAGUAGUGCAACCUGCUCGGUCUGAUGAGUCCCGCGAGGGACGAAACAGC | 1.743 ± 0.0083 | 1.828 ± 0.012 |
| GCUGUCACCGAGAAACUGUGAAGUAUAUCUUAAACCUGGGCACUUAAAAGAUAUAUGGAGUUAGUAGUGCAACCUGCUCGGUCUGAUGAGUCCCAUCUUGGACGAAACAGC | 1.56 ± 0.04 | 1.75 ± 0.1 |
| GCUGUCACCGAGAAACUGUGAAGUAUAUCUUAAACCUGGGCACUUAAAAGAUAUAUGGAGUUAGUAGUGCAACCUGCUCGGUCUGAUGAGUCCGUCCGAGGACGAAACAGC | 1.63 ± 0.024 | 1.78 ± 0.14 |
| GCUGUCACCGAGAAACUGUGAAGUAUAUCUUAAACCUGGGCACUUAAAAGAUAUAUGGAGUUAGUAGUGCAACCUGCUCGGUCUGAUGAGUCCCAACGGGGACGAAACAGC | 1.671 ± 0.012 | 1.77 ± 0.061 |
| GCUGUCACCGAGAAACUGUGAAGUAUAUCUUAAACCUGGGCACUUAAAAGAUAUAUGGAGUUAGUAGUGCAACCUGCUCGGUCUGAUGAGUCCAGCGUUGGACGAAACAGC | 1.678 ± 0.0089 | 1.82 ± 0.16 |
| GCUGUCACCGAGAAACUGUGAAGUAUAUCUUAAACCUGGGCACUUAAAAGAUAUAUGGAGUUAGUAGUGCAACCUGCUCGGUCUGAUGAGUCCGGCUGAGGACGAAACAGC | 1.54 ± 0.052 | 1.71 ± 0.14 |
| GCUGUCACCGAGAAACUGUGAAGUAUAUCUUAAACCUGGGCACUUAAAAGAUAUAUGGAGUUAGUAGUGCAACCUGCUCGGUCUGAUGAGUCCCUACUUGGACGAAACAGC | 1.56 ± 0.067 | 1.73 ± 0.059 |
| GCUGUCACCGAGAAACUGUGAAGUAUAUCUUAAACCUGGGCACUUAAAAGAUAUAUGGAGUUAGUAGUGCAACCUGCUCGGUCUGAUGAGUCCUUGUGUGGACGAAACAGC | 1.716 ± 0.015 | 1.88 ± 0.11 |
| GCUGUCACCGAGAAACUGUGAAGUAUAUCUUAAACCUGGGCACUUAAAAGAUAUAUGGAGUUAGUAGUGCAACCUGCUCGGUCUGAUGAGUCCUAUUUGGGACGAAACAGC | 1.732 ± 0.0073 | 1.86 ± 0.1 |
| GCUGUCACCGAGAAACUGUGAAGUAUAUCUUAAACCUGGGCACUUAAAAGAUAUAUGGAGUUAGUAGUGCAACCUGCUCGGUCUGAUGAGUCCUGAGAAGGACGAAACAGC | 1.6654 ± 7.7e-05 | 1.81 ± 0.1 |
| GCUGUCACCGAGAAACUGUGAAGUAUAUCUUAAACCUGGGCACUUAAAAGAUAUAUGGAGUUAGUAGUGCAACCUGCUCGGUCUGAUGAGUCCCUCGUCGGACGAAACAGC | 1.81 ± 0.032 | 1.93 ± 0.098 |
| GCUGUCACCGAGAAACUGUGAAGUAUAUCUUAAACCUGGGCACUUAAAAGAUAUAUGGAGUUAGUAGUGCAACCUGCUCGGUCUGAUGAGUCCUAACAUGGACGAAACAGC | 1.62 ± 0.019 | 1.76 ± 0.08 |
| GCUGUCACCGAGAAACUGUGAAGUAUAUCUUAAACCUGGGCACUUAAAAGAUAUAUGGAGUUAGUAGUGCAACCUGCUCGGUCUGAUGAGUCCCGGGCUGGACGAAACAGC | 1.84 ± 0.033 | 1.92 ± 0.14 |
| GCUGUCACCGAGAAACUGUGAAGUAUAUCUUAAACCUGGGCACUUAAAAGAUAUAUGGAGUUAGUAGUGCAACCUGCUCGGUCUGAUGAGUCCCGUAGGGGACGAAACAGC | 1.71 ± 0.033 | 1.82 ± 0.14 |
| GCUGUCACCGAGAAACUGUGAAGUAUAUCUUAAACCUGGGCACUUAAAAGAUAUAUGGAGUUAGUAGUGCAACCUGCUCGGUCUGAUGAGUCCUACACGGGACGAAACAGC | 1.76 ± 0.029 | 1.86 ± 0.088 |
| GCUGUCACCGAGAAACUGUGAAGUAUAUCUUAAACCUGGGCACUUAAAAGAUAUAUGGAGUUAGUAGUGCAACCUGCUCGGUCUGAUGAGUCCGACAUGGGACGAAACAGC | 1.61 ± 0.032 | 1.75 ± 0.12 |
| GCUGUCACCGAGAAACUGUGAAGUAUAUCUUAAACCUGGGCACUUAAAAGAUAUAUGGAGUUAGUAGUGCAACCUGCUCGGUCUGAUGAGUCCGACGUUGGACGAAACAGC | 1.619 ± 0.0079 | 1.81 ± 0.12 |
| GCUGUCACCGAGAAACUGUGAAGUAUAUCUUAAACCUGGGCACUUAAAAGAUAUAUGGAGUUAGUAGUGCAACCUGCUCGGUCUGAUGAGUCCACGCAUGGACGAAACAGC | 1.42 ± 0.15 | 1.68 ± 0.075 |
| GCUGUCACCGAGAAACUGUGAAGUAUAUCUUAAACCUGGGCACUUAAAAGAUAUAUGGAGUUAGUAGUGCAACCUGCUCGGUCUGAUGAGUCCACCCCUGGACGAAACAGC | 1.74 ± 0.036 | 1.86 ± 0.076 |
| GCUGUCACCGAGAAACUGUGAAGUAUAUCUUAAACCUGGGCACUUAAAAGAUAUAUGGAGUUAGUAGUGCAACCUGCUCGGUCUGAUGAGUCCUGGUCUGGACGAAACAGC | 1.75 ± 0.048 | 1.91 ± 0.11 |
| GCUGUCACCGAGAAACUGUGAAGUAUAUCUUAAACCUGGGCACUUAAAAGAUAUAUGGAGUUAGUAGUGCAACCUGCUCGGUCUGAUGAGUCCUUGGGAGGACGAAACAGC | 1.57 ± 0.1 | 1.72 ± 0.1 |
| GCUGUCACCGAGAAACUGUGAAGUAUAUCUUAAACCUGGGCACUUAAAAGAUAUAUGGAGUUAGUAGUGCAACCUGCUCGGUCUGAUGAGUCCCUCUCGGGACGAAACAGC | 1.89 ± 0.031 | 1.96 ± 0.1 |
| GCUGUCACCGAGAAACUGUGAAGUAUAUCUUAAACCUGGGCACUUAAAAGAUAUAUGGAGUUAGUAGUGCAACCUGCUCGGUCUGAUGAGUCCAGUCGAGGACGAAACAGC | 1.71 ± 0.036 | 1.84 ± 0.081 |
